Experiments:
Test in all cases: IEDB peptide-MHC binding, purified MHC/competitive/radioactivity; filed as Kd, often an IC50 or EC50 that approximates it; ≥ and ≤ were set here for values at or beyond the usual limits of such assays
Conditions in all cases: source organism: Toxoplasma gondii
[1] = molecular target: HLA-A*68:01
[2] = molecular target: HLA-A*30:01
[3] = molecular target: HLA-A*03:01
[4] = molecular target: HLA-A*31:01
[5] = molecular target: HLA-A*33:01

| Sequence | Kd [1] | Kd [2] | Kd [3] | Kd [4] | Kd [5] |
| --- | --- | --- | --- | --- | --- |
| AVVSLLRLLK | 94 nM | 8.1 nM | 17 nM | 1300 nM | 1100 nM |
| STFWPCLLR | 0.97 nM | 1270 nM | 22 nM | 1.2 nM | 3.4 nM |
